Here are results for two molecules from patent US20220072032A1 (AARHUS UNIVERSITET, published 2022).

For assay [1], the target named is Wild type human PCSK9 (proprotein convertase subtilisin-like/kexin type 9) (human, UniProt Q8NBP7 31-692, 35S metabolic label in the immunoprecipitations). Briefly: cell-based or functional assay.
Assay [2] concerns the target T1, PCSK9 mutant R93R96R97R104R105H139 (all mutated to alanine) (human, UniProt Q8NBP7 31-692, 35S metabolic label).
T1 construct: also called mutant PCSK9; 35S-mutant PCSK9
Briefly: immunoprecipitation of 35S-labelled PCSK9 mutant R93R96R97R104R105H139 (all to alanine) by mAb, autoradiography (16 h) [CONT.) H].

Assay [3] has as its target T2, PCSK9 mutant R96R97 (alanine substitutions) (human, UniProt Q8NBP7 31-692, 35S metabolic label).
T2 construct: also called variant R96R97
Briefly: immunoprecipitation of 35S-labelled PCSK9 WT and alanine variants, autoradiography [CONT.) I].

The target of a further assay is T3, R93R104R105H139 (35S metabolic label).
T3 construct: also called 35S PCSK9 variant R93R104R105H139
T3 sequence (PCSK9, as listed by the source limits assumed): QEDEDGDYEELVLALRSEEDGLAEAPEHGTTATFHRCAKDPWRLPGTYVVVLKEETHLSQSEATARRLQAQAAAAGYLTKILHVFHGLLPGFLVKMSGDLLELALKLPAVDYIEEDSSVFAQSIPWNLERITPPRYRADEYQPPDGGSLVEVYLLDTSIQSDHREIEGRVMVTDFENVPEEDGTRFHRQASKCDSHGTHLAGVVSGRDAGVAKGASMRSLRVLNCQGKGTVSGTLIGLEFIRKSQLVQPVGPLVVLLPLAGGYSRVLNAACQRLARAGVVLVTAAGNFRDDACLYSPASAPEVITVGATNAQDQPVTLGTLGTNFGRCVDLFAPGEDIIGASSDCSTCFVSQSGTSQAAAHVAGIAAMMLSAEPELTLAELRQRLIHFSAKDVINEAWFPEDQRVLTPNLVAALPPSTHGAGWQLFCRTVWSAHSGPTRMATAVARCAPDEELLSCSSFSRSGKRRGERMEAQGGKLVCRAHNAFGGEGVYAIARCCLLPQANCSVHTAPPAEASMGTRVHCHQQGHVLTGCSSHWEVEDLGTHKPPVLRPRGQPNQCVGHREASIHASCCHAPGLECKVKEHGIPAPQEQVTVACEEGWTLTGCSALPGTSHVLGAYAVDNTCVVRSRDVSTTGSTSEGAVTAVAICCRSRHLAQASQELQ
Described as above.

The target in assay [4] is T4, PCSK9 mutant R104R105 (alanine substitutions) (human, UniProt Q8NBP7 31-692, 35S metabolic label).
T4 construct: also called variant R104R105
T4 sequence (Q8NBP7 other isoform, or with tags, fused parts or gaps mutant limits assumed): as the sequence (PCSK9, as listed by the source limits assumed) above, with A63R, A109H counted along it
Described as above.

T1 sequence (Q8NBP7 other isoform, or with tags, fused parts or gaps mutant limits assumed): as the sequence (PCSK9, as listed by the source limits assumed) above, with R66A, R67A counted along it
Sequence of Wild type human PCSK9 (proprotein convertase subtilisin-like/kexin type 9) (Q8NBP7 31-692 limits assumed): as the sequence (PCSK9, as listed by the source limits assumed) above, with A63R, A74R, A75R, A109H counted along it
T2 sequence (Q8NBP7 other isoform, or with tags, fused parts or gaps mutant limits assumed): as the sequence (PCSK9, as listed by the source limits assumed) above, with A63R, R66A, R67A, A74R, A75R, A109H counted along it

B1: mAb 8H4 (rat hybridoma BNT-8H4-B8/C7-E11) (antibody, V domains shown)
VH: QVTLKESGPGILQPSQTLSLTCSFSGFSLSSSGICVSWIRQPSGKGLEWLATICWEDSKGYNPSLKNRLTISKDTSNNQALLRITSVDTADTAIYYCARVYYWYFDFWGPGTMVTVSS
VL: DIVMTQSPSLLSASVGDRVTLSCKGSQNINNYLAWYQQKLGEAPKLLIYNTNSLQTGIPSRFSGSGSGTDCTLTIRSLQPEDVATYFCYQYNNGNTFGGGTKLELK
notes: Rat monoclonal antibody, used as conditioned hybridoma medium
On to B1, for which, in assay [1], the “cellular levels of LDLR in HepG2 cells (Western blot)” value was approximately 2 fold. The binding result in assay [2] is “no binding (tested: 500 µl conditioned hybridoma medium)”.

B2: mAb 5E11 (rat hybridoma BNT-5E11-D4/G1-E4) (antibody, V domains shown)
VH: EVQLQESGPGLVKPSQSLSLTCSVTGYTITSGYDWSWIRRFPGNTMEWMGDISYSGSTNYNPSLKSRVSITRDTSKNQFFLQLNSVTTGDTATYYCAKLPGWGQGTLVTVSS
VL: DVVLTQTPVFLSVTLGDQTSISCRSSQSLEYSDGYTYLEWYLQKPGQSPQLLIYEVSNRFSGVPDRFIGSGSGTDFTLKISRVEPEDLGVYYCFQGTHDPLTFGSGTKLEIK
notes: as for B1
For the molecule B2, in assay [1], the “cellular levels of LDLR in HepG2 cells (Western blot)” value was approximately 2 fold. For the same molecule, the binding result in assay [2] is “no binding (tested: 500 µl conditioned hybridoma medium)”; in assay [3], “no binding”; with R93R104R105H139, “no binding”; in assay [4] it was “no binding”.
